{
  "source": "paper PMC4477602",
  "about": "(Journal of Biological Engineering, 2015)",
  "target": "T1, Wild type Clone A, soluble, C-terminal His6",
  "T1 chain": "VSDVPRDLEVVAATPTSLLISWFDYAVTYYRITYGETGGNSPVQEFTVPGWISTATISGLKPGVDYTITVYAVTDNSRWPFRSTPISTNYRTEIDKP",
  "experiment": "SEC; Superdex 75 10/300 GL, PBS pH 7.4, samples after Co2+ affinity resin; self-association (monomer, dimer, high MW oligomer in the void volume)",
  "settings": "both partners purified",
  "data": [
    {"binder": "Wild type Clone A, soluble, C-terminal His6 (designed binder, Glu47 (printed 45) taken from the text's description of wild type CA; Fig. S2 prints Asp / Glu47 (printed 45) taken from the text's description of wild type CA; Fig. S2 prints Asp) VSDVPRDLEVVAATPTSLLISWFDYAVTYYRITYGETGGNSPVQEFTVPGWISTATISGLKPGVDYTITVYAVTDNSRWPFRSTPISTNYRTEIDKP", "values": [
      {"measurement": "stoichiometry N", "value": 2}
    ]}
  ]
}
